One substance from article PMC6965176, “Targeting Forward and Reverse EphB4/EFNB2 Signaling by a Peptide with Dual Functions” (Scientific Reports, 2020) can be followed below.

The nature of this data set: Transmission electron microscopy particle size. The class given is physicochemical. The settings on record: transmission electron microscopy (Fig. 3C). The method, then:
examined with a JEM 1010 transmission electron microscope (JEOL USA, Inc., Peabody, MA) at an accelerating voltage of 80 kV. Digital images were obtained using the AMT Imaging System (Advanced Microscopy Techniques Corp., Danvers, MA).
Surface plasmon resonance (SPR) binding and competition assays. A stock solution of EphB4 in PBS (100 µg/mL) was diluted to 25 µg/mL with 10 mM sodium acetate buffer (pH 4.5) and immobilized to CM5 sensor chips using the amine coupling reaction according to manufacturer-provided procedures (BIACore). Briefly, the surfaces of the chips in flow cells (FC)- 1 and FC-2 were activated by exposing chips to a mixture of 200 mM N-ethyl-N’- dimethylaminopropyl carbodiimide and 50 mM N-hydroxysuccinimide for 7 min. FC-1 was used as a reference surface and was directly deactivated by injecting 1 M ethanolamine at pH 8.5 for 7 min. […]
Binding assays were performed in duplicate at 25°C in HBSEP running buffer. […] Thus, all analyzed samples, including a sample of the running buffer, were additionally injected onto an uncoated reference surface. The association rate (Kon) and dissociation rate (Koff) were calculated by fitting binding chromatogram data using the BIACore evaluation software with a 1:1 Langmuir binding model. […]

Non-standard residues stand in square brackets, D forms with d. No end group written: not given here.

For the substance “CCPM-BIDEN-AP: nanoconjugate of BIDEN-AP with core-crosslinked polymeric micelles (CCPM) (TN[dY]LFSPNGPIARAW; also: conjugated to core-crosslinked polymeric micelles (CCPM))”, the mean diameter turned out to be 24 ± 3 nm.
